In IntAct's records for PubMed 15901672:

B1: Bcl-2 homologous antagonist/killer (Homo sapiens), Q16611 (parent)
chain: MASGQGPGPPRQECGEPALPSASEEQVAQDTEEVFRSYVFYRHQQEQEAEGVAAPADPEMVTLPLQPSSTMGQVGRQLAIIGDDINRRYDSEFQTMLQHLQPTAENAYEYFTKIATSLFESGINWGRVVALLGFGYRLALHVYQHGLTGFLGQVTRFVVDFMLHHCIARWIAQRGGWVAALNLGNGPILNVLVVLGVVLLGQFVVRRFFKS
B2: Phorbol-12-myristate-13-acetate-induced protein 1 (Homo sapiens), Q13794 (parent)
chain: MPGKKARKNAQPSPARAPAELEVECATQLRRFGDKLNFRQKLLNLISKLFCSGT

Variants of: B1
Details: with mcl1_mouse Mcl1, P97287
Sequence of mcl1_mouse Mcl1, P97287 (P97287 whole entry): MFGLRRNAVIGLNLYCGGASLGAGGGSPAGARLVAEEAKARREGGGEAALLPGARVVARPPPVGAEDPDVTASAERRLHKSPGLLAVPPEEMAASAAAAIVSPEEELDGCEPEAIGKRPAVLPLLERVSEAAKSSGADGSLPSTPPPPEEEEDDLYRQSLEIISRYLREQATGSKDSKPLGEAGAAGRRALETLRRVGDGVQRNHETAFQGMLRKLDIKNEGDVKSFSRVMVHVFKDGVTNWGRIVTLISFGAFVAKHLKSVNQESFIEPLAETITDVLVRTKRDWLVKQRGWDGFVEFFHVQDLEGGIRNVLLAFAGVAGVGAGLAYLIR

| Variant | effect of a mutation on the interaction |
| --- | --- |
| MASGQGPGPPRQECGEPALPSASEEQVAQDTEEVFRSYVFYRHQQEQEAEGVAAPADPEMVTLPLQPSSTMGQVGRQAAIIGDDINRRYDSEFQTMLQHLQPTAENAYEYFTKIATSLFESGINWGRVVALLGFGYRLALHVYQHGLTGFLGQVTRFVVDFMLHHCIARWIAQRGGWVAALNLGNGPILNVLVVLGVVLLGQFVVRRFFKS [L78A] | decreasing interaction |

Variants of: B1
Details: with mcl1_human MCL1, Q07820
Target sequence in this assay (Q07820 whole entry): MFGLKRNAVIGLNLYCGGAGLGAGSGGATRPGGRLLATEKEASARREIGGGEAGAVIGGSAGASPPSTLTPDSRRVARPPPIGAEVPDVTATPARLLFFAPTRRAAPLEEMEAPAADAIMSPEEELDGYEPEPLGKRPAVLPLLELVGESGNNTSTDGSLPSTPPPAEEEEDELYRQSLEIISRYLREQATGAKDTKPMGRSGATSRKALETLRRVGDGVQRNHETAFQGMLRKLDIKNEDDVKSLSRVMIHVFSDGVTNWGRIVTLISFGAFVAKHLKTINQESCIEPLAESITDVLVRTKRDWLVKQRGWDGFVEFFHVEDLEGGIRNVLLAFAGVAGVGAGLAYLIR

| Variant | effect of a mutation on the interaction |
| --- | --- |
| MASGQGPGPPRQECGEPALPSASEEQVAQDTEEVFRSYVFYRHQQEQEAEGVAAPADPEMVTLPLQPSSTMGQVGRQAAIIGDDINRRYDSEFQTMLQHLQPTAENAYEYFTKIATSLFESGINWGRVVALLGFGYRLALHVYQHGLTGFLGQVTRFVVDFMLHHCIARWIAQRGGWVAALNLGNGPILNVLVVLGVVLLGQFVVRRFFKS [L78A] | decreasing interaction |

Variants of: B1
Details: with bax_human BAX

| Variant | effect of a mutation on the interaction |
| --- | --- |
| MASGQGPGPPRQECGEPALPSASEEQVAQDTEEVFRSYVFYRHQQEQEAEGVAAPADPEMVTLPLQPSSTMGQVGRQAAIIGDDINRRYDSEFQTMLQHLQPTAENAYEYFTKIATSLFESGINWGRVVALLGFGYRLALHVYQHGLTGFLGQVTRFVVDFMLHHCIARWIAQRGGWVAALNLGNGPILNVLVVLGVVLLGQFVVRRFFKS [L78A] | decreasing interaction |

Variants of: B2
Details: with mcl1_human MCL1, Q07820
Target sequence in this assay (Q07820 whole entry): as the sequence (Q07820 whole entry) above

| Variant | effect of a mutation on the interaction |
| --- | --- |
| MPGKKARKNAQPSPARAPAELEVECATQERRFGDKLNFRQKLLNLISKLFCSGT | decreasing interaction |
| MPGKKARKNAQPSPARAPAELEVECATQLRREGDKLNFRQKLLNLISKLFCSGT | decreasing interaction |
| MPGKKARKNAQPSPARAPAELEVECATQLRRFGDKENFRQKLLNLISKLFCSGT | decreasing interaction |
